Experiments:
[1] = target: T1, human melanocortin 1 receptor (MC1R) (human, UniProt Q01726 1-317); test: competitive binding vs 125I-NDP-α-MSH on whole HEK293 cells overexpressing human MC1R
T1 construct: whole, on cells; also called MC1 receptor
Method: (§1) Competitive binding assays were performed on whole cells. Stably transfected HEK293 cell lines overexpressing human MC1R, MC3R, MC4R or MC5R were seeded on 96-well plates 48 h before the assay and grown to 100,000 cells per well. For the assay, the medium was removed, and cells were washed twice with a binding buffer containing minimum essential medium with Earle's salt (MEM, GIBCO), 25 mM HEPES (pH 7.4), 0.2% bovine serum albumin, 1 mM 1,10-phenanthrolone, 0.5 mg/L leupeptin and 200 mg/L bacitracin. […] The medium was subsequently removed, and the cells were washed twice with the binding buffer. The cells were lysed by 50 μL of 0.1 mM NaOH and 50 μL of 1% Triton X-100. The plates were left dry overnight under the hood, and 50 μL of scintillation fluid (OptiPhase SuperMix, PerkinElmer) were added in each well. The radioactivity was measured using MicroBeta 2 microplate counter (PerkinElmer). Data were analyzed using Graphpad Prism 6 (Graphpad Software, San Diego, Calif.).

[2] = target: T2, human MC5R (human, UniProt P33032 1-325); test: competitive binding vs 125I-NDP-α-MSH on whole HEK293 cells overexpressing human MC5R
T2 construct: whole, on cells
Method: as §1

[3] = target: T3, human MC3R (human, UniProt P41968 1-323); test: competitive binding vs 125I-NDP-α-MSH on whole HEK293 cells overexpressing human MC3R
T3 construct: whole, on cells
T3 sequence (P41968 whole entry): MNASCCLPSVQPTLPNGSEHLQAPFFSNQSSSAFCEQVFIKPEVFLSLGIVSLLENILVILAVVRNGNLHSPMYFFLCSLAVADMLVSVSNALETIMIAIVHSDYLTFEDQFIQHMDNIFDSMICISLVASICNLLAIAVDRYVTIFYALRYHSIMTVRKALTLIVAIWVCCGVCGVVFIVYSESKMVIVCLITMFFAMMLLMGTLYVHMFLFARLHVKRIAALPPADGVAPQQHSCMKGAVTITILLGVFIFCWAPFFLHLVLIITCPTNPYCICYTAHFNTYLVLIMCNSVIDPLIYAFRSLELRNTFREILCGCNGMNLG
Method: as §1

[4] = target: T4, human MC4R (human, UniProt P32245 1-332); test: competitive binding vs 125I-NDP-α-MSH on whole HEK293 cells overexpressing human MC4R
T4 construct: whole, on cells
T4 sequence (P32245 whole entry): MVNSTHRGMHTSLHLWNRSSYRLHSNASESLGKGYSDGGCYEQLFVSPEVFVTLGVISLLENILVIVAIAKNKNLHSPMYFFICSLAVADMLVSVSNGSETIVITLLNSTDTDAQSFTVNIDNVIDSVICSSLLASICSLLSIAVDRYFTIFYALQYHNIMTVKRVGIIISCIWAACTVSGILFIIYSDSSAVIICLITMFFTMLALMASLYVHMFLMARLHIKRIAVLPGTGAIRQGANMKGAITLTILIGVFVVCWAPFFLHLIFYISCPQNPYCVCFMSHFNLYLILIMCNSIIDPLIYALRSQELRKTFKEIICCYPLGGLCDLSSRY
Method: as §1

T1 sequence (Q01726 whole entry): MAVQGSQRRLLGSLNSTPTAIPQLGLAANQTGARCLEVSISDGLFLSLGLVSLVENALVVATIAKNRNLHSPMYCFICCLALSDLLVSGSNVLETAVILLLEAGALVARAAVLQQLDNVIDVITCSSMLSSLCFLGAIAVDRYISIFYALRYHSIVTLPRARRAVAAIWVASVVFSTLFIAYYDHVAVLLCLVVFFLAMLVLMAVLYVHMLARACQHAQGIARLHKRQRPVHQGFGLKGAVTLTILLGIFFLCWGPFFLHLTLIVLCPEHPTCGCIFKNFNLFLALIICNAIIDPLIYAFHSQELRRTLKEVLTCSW
T2 sequence (P33032 whole entry): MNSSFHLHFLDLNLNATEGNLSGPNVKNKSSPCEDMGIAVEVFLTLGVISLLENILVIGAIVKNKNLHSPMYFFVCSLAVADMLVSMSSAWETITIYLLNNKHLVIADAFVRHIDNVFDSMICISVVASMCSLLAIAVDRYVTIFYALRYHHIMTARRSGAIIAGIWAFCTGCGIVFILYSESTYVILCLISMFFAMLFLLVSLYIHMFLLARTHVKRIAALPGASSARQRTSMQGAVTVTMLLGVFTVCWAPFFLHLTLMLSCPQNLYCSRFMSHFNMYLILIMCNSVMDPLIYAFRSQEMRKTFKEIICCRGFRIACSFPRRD

Row | Binder | Ki [1] [nM] | Ki [2] [nM] | Ki [3] [nM] | Ki [4] [nM]
1 | CXLDHFRWK (not fully specified; Cys 1 thiol joined by a disulfide to a 2-thioethyl carbonate linker carrying fluorescein; 6-aminohexanoic acid (6-Ahx) at 2; Nle at 3; D-Phe at 6; lactam cyclization between Asp 4 and Lys 9 side chains; C-terminal amide; no N-terminal acetyl on Nle (replaced by the Cys-6-Ahx spacer), also called fluorescein-MT-II (2); compound 2) [fluorescein-MT-II conjugate (2)] | 172 |  |  | 
2 | CXLDHFRWK (not fully specified; Cys 1 thiol joined by a disulfide to a 2-thioethyl carbonate linker carrying camptothecin; 6-aminohexanoic acid (6-Ahx) at 2; Nle at 3; D-Phe at 6; lactam cyclization between Asp 4 and Lys 9 side chains; C-terminal amide; no N-terminal acetyl on Nle (replaced by the Cys-6-Ahx spacer), also called CPT-MT-II (1); camptothecin-MT-II (1)) [camptothecin (CPT)-MT-II conjugate (1)] | 57 | 194 | 300 | 173

Reference: patent publication US20220143196A1 (ARIZONA BOARD OF REGENTS ON BEHALF OF THE UNIVERSITY OF …, published 2022)
